Patent publication US20160130329A1 (UNIVERSITY OF CHICAGO, published 2016)
Read-outs that look alike come from different tables or passages of the source. Where no end group is shown, it is not given here. [ ]: non-standard residue; d: D form. Lys(Me3) = C[N+](C)(C)CCCC[C@H](N)C(=O)O

Assays:
H3K4me3 peptide [1] = molecular target: T1, H3K4me3 peptide (also: biotinylated, site not given here); assay: yeast display, flow cytometry [A]
T1 peptide: ART[Lys(Me3)]QTARKSTGGYCD

H3K27me3 peptide [2] = molecular target: T2, H3K27me3 peptide (trimethyl-lysine at K27 (histone H3 numbering); biotinylated through the GYCD tag); assay: yeast display, flow cytometry [A]
T2 peptide: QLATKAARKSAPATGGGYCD

H3K27me3 peptide [3] = molecular target: T2, H3K27me3 peptide; assay: phage ELISA [B]
H4K20me3 peptide [4] = molecular target: T3, H4K20me3 peptide (trimethyl-lysine at K20 (histone H4 numbering); biotinylated through the GYCD tag); assay: phage ELISA [B]
T3 peptide: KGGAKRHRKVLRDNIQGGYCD

H4K20me3 peptide [5] = molecular target: T3, H4K20me3 peptide; assay: phage ELISA [A]
H3K27me3 peptide [6] = molecular target: T2, H3K27me3 peptide; assay: yeast display, flow cytometry [B]
H3K36me3 peptide [7] = molecular target: T4, H3K36me3 peptide (K(me3) at H3 K36; K(biotin) near the C-terminus, as printed: SAPATGGVK-K(me3)-PHRYRPGG-K(biotin)-D); assay: yeast display, flow cytometry [B]
T4 peptide: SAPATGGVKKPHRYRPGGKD

H3K4me3 peptide [8] = molecular target: T1, H3K4me3 peptide; assay: phage ELISA
H3K4me3 peptide [9] = molecular target: T1, H3K4me3 peptide; assay: yeast display of the scFv, peptide titration, flow cytometry
H3K4me3 peptide [10] = molecular target: T1, H3K4me3 peptide; assay: as above
H3K36me3 peptide [11] = molecular target: T4, H3K36me3 peptide; assay: phage ELISA

B1: 36H1 (scFv)
scFv: EVQLVETGGGVVQPGRSLRLSCTASGFTFRDYWMSWVRQAPGKGLEWVADISKEGKYMYYLDAVKGRFTISRDNAKSSLYLQMNSLGAEDTAVYYCARDLNYGAGWHFDLWGRGTLVTVSSSYVLTQPPSVSVAPGQTARITCGGTNIGDISVHWYQQRPGQAPLVVVYDDSDRPSGIPERFSGSNSGNTATLTISRVEAGDEADYYCQVWDDSINAYVFGTGTKVTVL
B1: no binding (tested: 500 nM) (H3K4me3 peptide [1]); no binding (tested: 500 nM) (H3K27me3 peptide [2]).

B2: 4H1 (scFv)
scFv: EVQLVETGGGVVQPGRSLRLSCTASGFTFRDYWMSWVRQAPGKGLEWVADIGEHGSFSYYLDAVKGRFTISRDNAKSSLYLQMNSLGAEDTAVYYCARNFSRGYGWHFDLWGRGTLVTVSSSYVLTQPPSVSVAPGQTARITCGGTNIGDISVHWYQQRPGQAPLVVVYDDSDRPSGIPERFSGSNSGNTATLTISRVEAGDEADYYCQVWDDSINAYVFGTGTKVTVL
B2: no binding (tested: 100 nM peptide) (H3K27me3 peptide [3]); no binding (tested: 100 nM peptide) (H4K20me3 peptide [4]).

B3: 9H3 (scFv)
scFv: EVQLVETGGGVVQPGRSLRLSCTASGFTFRDYWMSWVRQAPGKGLEWVADISQDGESRYYVDAVKGRFTISRDNAKSSLYLQMNSLGAEDTAVYYCARDLLSGYGWHFDLWGRGTLVTVSSSYVLTQPPSVSVAPGQTARITCGGTNIGDISVHWYQQRPGQAPLVVVYDDSDRPSGIPERFSGSNSGNTATLTISRVEAGDEADYYCQVWDDSINAYVFGTGTKVTVL
B3: no binding (tested: 100 nM peptide) (H4K20me3 peptide [5]).

B4: 20H3 (scFv)
scFv: EVQLVETGGGVVQPGRSLRLSCTASGFTFRDYWMSWVRQAPGKGLEWVADISQEGSWAYYLDAVKGRFTISRDNAKSSLYLQMNSLGAEDTAVYYCARDFPHGSGWHFDLWGRGTLVTVSSSYVLTQPPSVSVAPGQTARITCGGTNIGDISVHWYQQRPGQAPLVVVYDDSDRPSGIPERFSGSNSGNTATLTISRVEAGDEADYYCQVWDDSINAYVFGTGTKVTVL
B4: no binding (tested: 500 nM) (H3K27me3 peptide [6]); no binding (tested: 500 nM) (H3K36me3 peptide [7]).

B5: 4H3 (scFv)
scFv: EVQLVETGGGVVQPGRSLRLSCTASGFTFRDNWMSWVRQAPGKGLEWVADIAEDGKAMYYIDAVKGRFTISRDNAKSSLYLQMNSLGAEDTAVYYCARVFSRGYGWHFDLWGRGTLVTVSSSYVLTQPPSVSVAPGQTARITCGGTNIGDISVHWYQQRPGQAPLVVVYDDSDRPSGIPERFSGSNSGNTATLTISRVEAGDEADYYCQVWDDSINAYVFGTGTKVTVL
B5: no binding (tested: 100 nM peptide) (H4K20me3 peptide [4]).

B6: 4H2 (scFv)
scFv: EVQLVETGGGVVQPGRSLRLSCTASGFTFRDYWMSWVRQAPGKGLEWVADISKDGSASYYVDAVKGRFTISRDNAKSSLYLQMNSLGAEDTAVYYCARDFVSGYGWHFDLWGRGTLVTVSSSYVLTQPPSVSVAPGQTARITCGGTNIGDISVHWYQQRPGQAPLVVVYDDSDRPSGIPERFSGSNSGNTATLTISRVEAGDEADYYCQVWDDSINAYVFGTGTKVTVL
B6: no binding (tested: 100 nM peptide) (H3K27me3 peptide [3]); no binding (tested: 100 nM peptide) (H4K20me3 peptide [4]).

B7: 36H4 (scFv)
scFv: EVQLVETGGGVVQPGRSLRLSCTASGFTFRDHWMSWVRQAPGKGLEWVADISKEGKYMYYLDAVKGRFTISRDNAKSSLYLQMNSLGAEDTAVYYCARDLNYGAGWHFDVWGRGTLVTVSSSYVLTQPPSVSVAPGQTARITCGGTNIGDISVHWYQQRPGQAPLVVVYDDSDRPSGIPERFSGSNSGNTATLTISRVEAGDEADYYCQVWDDSINAYVFGTGTKVTVL
B7: no binding (tested: 500 nM) (H3K4me3 peptide [1]); no binding (tested: 500 nM) (H3K27me3 peptide [2]).

B8: 36H5 (scFv)
scFv: EVQLVETGGGVVQPGRSLRLSCTASGFTFRDYWVSWVRQAPGKGLEWVADISKEGKYMYYLDAVKGRFTISRDNAKSSLYLQMNSLGAEDTAVYYCARDLNYGAGWHFDLWGRGTLVTVSSSYVLTQPPSVSVAPGQTARITCGGTNIGDISVHWYQQRPGQAPLVVVYDDSDRPSGIPERFSGSNSGNTATLTISRVEAGDEADYYCQVWDDSINAYVFGTGTKVTVL
B8: no binding (tested: 500 nM) (H3K4me3 peptide [1]); no binding (tested: 500 nM) (H3K27me3 peptide [2]).

B9: 36H2 (scFv)
scFv: EVQLVETGGGVVQPGRSLRLSCTASGFTFRDHWMSWVRQAPGKGLEWVADISKEGKYMYYLDAVKGRFTISRDNAKSSLYLQMNSLGAEDTAVYYCARDLNYGAGWHFDLWGRGTLVTVSSSYVLTQPPSVSVAPGQTARITCGGTNIGDISVHWYQQRPGQAPLVVVYDDSDRPSGIPERFSGSNSGNTATLTISRVEAGDEADYYCQVWDDSINAYVFGTGTKVTVL
B9: no binding (tested: 500 nM) (H3K4me3 peptide [1]); no binding (tested: 500 nM) (H3K27me3 peptide [2]).

B10: 20F109 (scFv)
scFv: EVQLVETGGGVVQPGRSLRLSCTASGFTFRDYWMSWVRQAPGKGLEWVADINPDGITRYYIDAVKGRFTISRDNAKSSLYLQMNSLGAEDTAVYYCAREFHPGRYDWHFDLWGRGTLVTVSSSYVLTQPPSVSVAPGQTARITCGGTNISSSSVHWYQQRPGQAPLVVVYDDNYRPSGIPERFSGSNSGNTATLTISRVEAGDEADYYCQVWDDSINAYVFGTGTKVTVL
B10: no binding (tested: 100 nM peptide) (H3K4me3 peptide [8]).

B11: scFv 4-5 (scFv)
scFv: EVQLVETGGGVVQPGRSLRLSCTASGFTFRDYWMSWVRQAPGKGLEWVADIKQDGSDKYYVDAVKGRFTISRDNAKSSLYLQMNSLGAEDTAVYYCARDFSRGSGWHFDLWGRGTLVTVSSGILGSGGGGSGGGGSGGGGSSYVLTQPPSVSVAPGQTARITCGGTNIGDISVHWYQQRPGQAPLVVVYDDSDRPSGIPERFSGSNSGNTATLTISRVEAGDEADYYCQVWDDSINAYVFGTGTKVTVL
notes: also called lead antibody; scFv 4-5 polypeptide
B11 gave a Kd (H3K4me3 peptide [9]) of 5.1 µM and a Kd (H3K4me3 peptide [10]) of 5.1 µM.

B12: 27F40 (scFv)
scFv: EVQLVETGGGVVQPGRSLRLSCTASGFTFRDYWMSWVRQAPGKGLEWVADINPDGITRYYIDAVKGRFTISRDNAKSSLYLQMNSLGAEDTAVYYCAREFTNVYGWHFDLWGRGTLVTVSSSYVLTQPPSVSVAPGQTARITCGGTNISNTYVHWYQQRPGQAPLVVVYSSPARPSGIPERFSGSNSGNTATLTISRVEAGDEADYYCQVWDDSINAYVFGTGTKVTVL
B12: no binding (tested: 100 nM peptide) (H3K36me3 peptide [11]).

B13: 27F52 (scFv)
scFv: EVQLVETGGGVVQPGRSLRLSCTASGFTFRDYWMSWVRQAPGKGLEWVADINPDGITRYYIDAVKGRFTISRDNAKSSLYLQMNSLGAEDTAVYYCAREFNNVYGWHFDLWGRGTLVTVSSSYVLTQPPSVSVAPGQTARITCGGTNINDTYVHWYQQRPGQAPLVVVYSSDPRPSGIPERFSGSNSGNTATLTISRVEAGDEADYYCQVWDDSINAYVFGTGTKVTVL
B13: no binding (tested: 100 nM peptide) (H3K36me3 peptide [11]).

B14: 27F12 (scFv)
scFv: EVQLVETGGGVVQPGRSLRLSCTASGFTFRDYWMSWVRQAPGKGLEWVADINPDGITRYYIDAVKGRFTISRDNAKSSLYLQMNSLGAEDTAVYYCAREFTNAYGWHFDLWGRGTLVTVSSSYVLTQPPSVSVAPGQTARITCGGTNIISTYVHWYQQRPGQAPLVVVYAHSDRPSGIPERFSGSNSGNTATLTISRVEAGDEADYYCQVWDDSINAYVFGTGTKVTVL
B14: no binding (tested: 100 nM peptide) (H3K36me3 peptide [11]).

B15: 20F78 (scFv)
scFv: EVQLVETGGGVVQPGRSLRLSCTASGFTFRDYWMSWVRQAPGKGLEWVADINPDGITRYYIDAVKGRFTISRDNAKSSLYLQMNSLGAEDTAVYYCAREFPNNYGWHFDLWGRGTLVTVSSSYVLTQPPSVSVAPGQTARITCGGTNIDHRVPVHWYQQRPGQAPLVVVYAYSSRPSGIPERFSGSNSGNTATLTISRVEAGDEADYYCQVWDDSINAYVFGTGTKVTVL
B15: no binding (tested: 100 nM peptide) (H3K4me3 peptide [8]).

B16: 20F94 (scFv)
scFv: EVQLVETGGGVVQPGRSLRLSCTASGFTFRDYWMSWVRQAPGKGLEWVADINPDGITRYYIDAVKGRFTISRDNAKSSLYLQMNSLGAEDTAVYYCAREFPYINIWHFDLWGRGTLVTVSSSYVLTQPPSVSVAPGQTARITCGGTNIADYTTVHWYQQRPGQAPLVVVYANSARPSGIPERFSGSNSGNTATLTISRVEAGDEADYYCQVWDDSINAYVFGTGTKVTVL
B16: no binding (tested: 100 nM peptide) (H3K4me3 peptide [8]).

B17: 20F87 (scFv)
scFv: EVQLVETGGGVVQPGRSLRLSCTASGFTFRDYWMSWVRQAPGKGLEWVADINPDGITRYYIDAVKGRFTISRDNAKSSLYLQMNSLGAEDTAVYYCAREFYGSWHFDLWGRGTLVTVSSSYVLTQPPSVSVAPGQTARITCGGTNISHSSGDVHWYQQRPGQAPLVVVYYSYARPSGIPERFSGSNSGNTATLTISRVEAGDEADYYCQVWDDSINAYVFGTGTKVTVL
B17: no binding (tested: 100 nM peptide) (H3K4me3 peptide [8]).
